In US20160193299A1, “MODIFIED NUCLEOSIDE, NUCLEOTIDE, AND NUCLEIC ACID COMPOSITIONS” (Moderna Therapeutics, Inc., priority 2011, published 2016):

Columns and labels:
HEK293A = assay: Example 44 signal sequence exchange study, secreted G-CSF ELISA; assay type: cell-based, human; conditions: 293A, 250 ng modified mRNA, supernatant after 24 hrs
Description: (§1) These variants included the G-CSF constructs encoding either the wild-type N terminal secretory signal peptide sequence ([…]; SEQ ID NO: 21), no secretory signal peptide sequence, or secretory signal peptide sequences taken from other mRNAs. These included sequences where the wild type GCSF signal peptide sequence was replaced with the signal peptide sequence of either: human α-1-anti trypsin (AAT) ([…]; SEQ ID NO: 22), human Factor IX (FIX) ([…]; SEQ ID NO: 23), human Prolactin (Prolac) ([…]; SEQ ID NO: 24), or human Albumin (Alb) ([…]; SEQ ID NO: 25).
(§2) 250 ng of modified mRNA encoding each G-CSF variant was transfected into HEK293A (293A in the table), mouse myoblast (MM in the table) (C2C12, CRL-1772, ATCC) and rat myoblast (RM in the table) (L6 line, CRL-1458, ATCC) cell lines in a 24 well plate using 1 ul of Lipofectamine 2000 (Life Technologies), each well containing 300,000 cells. […] The data shown in Table 68 reveal that cells transfected with G-CSF mmRNA encoding the Albumin signal peptide secrete at least 12 fold more G-CSF protein than its wild type counterpart.

mouse myoblast (C2C12) = assay: as above; assay type: cell-based; conditions: MM, 250 ng modified mRNA, supernatant after 24 hrs
Description: as §1, §2

rat myoblast (L6 line) = assay: as above; assay type: cell-based; conditions: RM, 250 ng modified mRNA, supernatant after 24 hrs
Description: as §1, §2

[1] = test system: Human primary foreskin fibroblasts (BJ fibroblasts); assay: Innate immune response transcripts in BJ fibroblasts, single transfection (qPCR); assay type: cell-based; conditions: 250 ng, 18 hours
Experimental: The cells were harvested after 18 hours, the total RNA was isolated and DNASE® treated using the RNeasy micro kit (catalog #74004) following the manufacturer's protocol. 100 ng of total RNA was used for cDNA synthesis using High Capacity cDNA Reverse Transcription kit (catalog #4368814) following the manufacturer's protocol. The cDNA was then analyzed for the expression of innate immune response genes by quantitative real time PCR using SybrGreen in a Biorad CFX 384 instrument following manufacturer's protocol. […] In the table, the panel of standard metrics includes: RIG-I is retinoic acid inducible gene 1, IL6 is interleukin-6, OAS-1 is oligoadenylate synthetase 1, IFNb is interferon-beta, AIM2 is absent in melanoma-2, IFIT-1 is interferon-induced protein with tetratricopeptide repeats 1, PKR is protein kinase R, TNFa is tumor necrosis factor alpha and IFNa is interferon alpha.

[2] = test system: Human primary foreskin fibroblasts (BJ fibroblasts); assay: Innate immune response in BJ fibroblasts, repeat transfection: cytokine response; assay type: cell-based
Female BALB/C mice = assay: In vivo detection of innate immune response: human G-CSF and mouse IFN-alpha in serum after I.M. injection
Experimental: Blood is collected at 8 hours after dosing and using ELISA the protein levels of G-CSF and interferon-alpha (IFN-alpha) is determined by ELISA and are shown in Table 81.

[3] = Stability of modified RNA on storage (gel electrophoresis); assay type: physicochemical; conditions: gel electrophoresis
Experimental: Stability experiments were conducted to obtain a better understanding of storage conditions to retain the integrity of modified RNA. […] After the mRNA had been stored for 0 hours, 2 hours, 6 hours, 24 hours, 48 hours, 5 days and 14 days, the mRNA was analyzed by gel electrophoresis using a Bio-Rad EXPERION′ system. The modified, unmodified and lipoplexed G-CSF mRNA was also stored in RNASTABLE® (Biomatrica, Inc. San Diego, Calif.) at 40° C. or water at −80° C. or 40° C. for 35 days before being analyzed by gel electrophoresis.
mRNA samples stored at 4° C., 25° C. and 37° C. were stored in 1× TE buffer or the formulation buffer (150 mM sodium chloride, 2 mM calcium chloride, 2 mM phosphate, 0.5 mM EDTA at a pH of 6.5). The mRNA stored at 4° C. was stable to at least 60 days in both the TE and formulation buffer. At 25° C. the mRNA in formulation buffer was stable out to 14 days and the TE buffer was stable out to at least 6 days. Storage of mRNA in the formulation buffer at 37° C. was stable to 6 days compared to the TE buffer which was stable only until 4 days.

mice = assay: In vivo cytokine expression study (serum IFN-alpha); conditions: mouse serum; I.M. 200 ug mRNA; after 8 hours
Experimental: After 8 hours serum was collected from the mice and analyzed for interferon-alpha (IFN-alpha) expression.

HEK293 cells = assay: In vitro expression of VEGF modified mRNA (ELISA); assay type: cell-based

Albumin
secreted G-CSF protein (HEK293A): 122050 pg/mL | secreted G-CSF protein (mouse myoblast (C2C12)): 81050 pg/mL | secreted G-CSF protein (rat myoblast (L6 line)): 173300 pg/mL

Natural Luciferase: natural luciferase mRNA SEQ ID NO: 16, Cap1
AIM2 transcript level [1]: 0.251 fold-induction relative to HPRT | IFIT-1 transcript level [1]: 151.218 fold-induction relative to HPRT | IFNa transcript level [1]: 0.067 fold-induction relative to HPRT | IFNb transcript level [1]: 11.404 fold-induction relative to HPRT | IL6 transcript level [1]: 20.6 fold-induction relative to HPRT | OAS-1 transcript level [1]: 20.778 fold-induction relative to HPRT | PKR transcript level [1]: 16.001 fold-induction relative to HPRT | RIG-I transcript level [1]: 71.5 fold-induction relative to HPRT | TNFa transcript level [1]: 0.526 fold-induction relative to HPRT

Prolactin
secreted G-CSF protein (HEK293A): 7875 pg/mL | secreted G-CSF protein (mouse myoblast (C2C12)): 1525 pg/mL | secreted G-CSF protein (rat myoblast (L6 line)): 9800 pg/mL

α-1-anti trypsin
secreted G-CSF protein (HEK293A): 9950 pg/mL | secreted G-CSF protein (mouse myoblast (C2C12)): 5000 pg/mL | secreted G-CSF protein (rat myoblast (L6 line)): 8475 pg/mL

B1: G-CSF unmodified: unmodified G-CSF mRNA SEQ ID NO: 6, Cap1 (nucleic acid, listed as Homo sapiens)
chain: GGGAAAUAAGAGAGAAAAGAAGAGUAAGAAGAAAUAUAAGAGCCACCAUGGCCGGUCCCGCGACCCAAAGCCCCAUGAAACUUAUGGCCCUGCAGUUGCUGCUUUGGCACUCGGCCCUCUGGACAGUCCAAGAAGCGACUCCUCUCGGACCUGCCUCAUCGUUGCCGCAGUCAUUCCUUUUGAAGUGUCUGGAGCAGGUGCGAAAGAUUCAGGGCGAUGGAGCCGCACUCCAAGAGAAGCUCUGCGCGACAUACAAACUUUGCCAUCCCGAGGAGCUCGUACUGCUCGGGCACAGCUUGGGGAUUCCCUGGGCUCCUCUCUCGUCCUGUCCGUCGCAGGCUUUGCAGUUGGCAGGGUGCCUUUCCCAGCUCCACUCCGGUUUGUUCUUGUAUCAGGGACUGCUGCAAGCCCUUGAGGGAAUCUCGCCAGAAUUGGGCCCGACGCUGGACACGUUGCAGCUCGACGUGGCGGAUUUCGCAACAACCAUCUGGCAGCAGAUGGAGGAACUGGGGAUGGCACCCGCGCUGCAGCCCACGCAGGGGGCAAUGCCGGCCUUUGCGUCCGCGUUUCAGCGCAGGGCGGGUGGAGUCCUCGUAGCGAGCCACCUUCAAUCAUUUUUGGAAGUCUCGUACCGGGUGCUGAGACAUCUUGCGCAGCCGUGAAGCGCUGCCUUCUGCGGGGCUUGCCUUCUGGCCAUGCCCUUCUUCUCUCCCUUGCACCUGUACCUCUUGGUCUUUGAAUAAAGCCUGAGUAGGAAG
modifications: Cap1
IFN-beta ([2]; 250 ng transfected daily for 5 days, 6 hours): 0 pg/mL | IL-6 ([2]; daily transfection, 6 hours): 3596 pg/mL | IFN-beta ([2]; daily transfection, Day 1): 1363 pg/mL | IL-6 ([2]; daily transfection, Day 1): 15207 pg/mL | IFN-beta ([2]; daily transfection, Day 2): 238 pg/mL | IL-6 ([2]; daily transfection, Day 2): 12415 pg/mL | IFN-beta ([2]; daily transfection, Day 3): 225 pg/mL | IL-6 ([2]; daily transfection, Day 3): 5017 pg/mL | IFN-beta ([2]; daily transfection, Day 4): 363 pg/mL | IL-6 ([2]; daily transfection, Day 4): 4267 pg/mL | IFN-beta ([2]; daily transfection, Day 5): 225 pg/mL | IL-6 ([2]; daily transfection, Day 5): 3094 pg/mL | PC Ratio (Female BALB/C mice; Protein:Cytokine ratio, G-CSF / IFN-alpha in mouse serum): 9 | G-CSF protein (Female BALB/C mice; human G-CSF in mouse serum, I.M., 200 ug/mouse mRNA (R848 75 ug) in 5% sucrose, 8 hours after dosing): 605.6 pg/mL | IFN-alpha expression (Female BALB/C mice; mouse IFN-alpha in serum, I.M., 200 ug/mouse mRNA (R848 75 ug), 8 hours after dosing): 67.01 pg/mL | stable out to (storage time) ([3]; stored at 25 C): 48 h | stable out to (storage time) ([3]; stored at 37 C): 6 h | stable out to (storage time) ([3]; stored at 50 C): 2 h | IFN-alpha (mice): 67.012 pg/mL

B2: VEGF-A: modified mRNA VEGF-A SEQ ID NO: 19, Cap1, fully modified with 5-methylcytosine and pseudouridine, Lipofectamine2000 complexed (nucleic acid, listed as Homo sapiens)
sense: GGGAAAUAAGAGAGAAAAGAAGAGUAAGAAGAAAUAUAAGAGCCACCAUGAACUUUCUCUUGUCAUGGGUGCACUGGAGCCUUGCGCUGCUGCUGUAUCUUCAUCACGCUAAGUGGAGCCAGGCCGCACCCAUGGCGGAGGGUGGCGGACAGAAUCACCACGAAGUAGUCAAAUUCAUGGACGUGUACCAGAGGUCGUAUUGCCAUCCGAUUGAAACUCUUGUGGAUAUCUUUCAAGAAUACCCCGAUGAAAUCGAGUACAUUUUCAAACCGUCGUGUGUCCCUCUCAUGAGGUGCGGGGGAUGCUGCAAUGAUGAAGGGUUGGAGUGUGUCCCCACGGAGGAGUCGAAUAUCACAAUGCAAAUCAUGCGCAUCAAACCACAUCAGGGUCAGCAUAUUGGAGAGAUGUCCUUUCUCCAGCACAACAAAUGUGAGUGUAGACCGAAGAAGGACCGAGCCCGACAGGAAAACCCAUGCGGACCGUGCUCCGAGCGGCGCAAACACUUGUUCGUACAAGACCCCCAGACAUGCAAGUGCUCAUGUAAGAAUACCGAUUCGCGGUGUAAGGCGAGACAGCUGGAAUUGAACGAGCGCACGUGUAGGUGCGACAAGCCUAGACGGUGAGCUGCCUUCUGCGGGGCUUGCCUUCUGGCCAUGCCCUUCUUCUCUCCCUUGCACCUGUACCUCUUGGUCUUUGAAUAAAGCCUGAGUAGGAAG
modifications: Cap1, polyA, 5mC/pseudoU, Lipofectamine2000 complexed
Protein (HEK293 cells; amount transfected 2 pg): 0 pg/mL | Protein (HEK293 cells; amount transfected 10 pg): 0 pg/mL | Protein (HEK293 cells; amount transfected 39 pg): 0 pg/mL | Protein (HEK293 cells; amount transfected 156 pg): 189.6 pg/mL | Protein (HEK293 cells; amount transfected 625 pg): 2321.23 pg/mL | Protein (HEK293 cells; amount transfected 2.5 ng): 10038 pg/mL | Protein (HEK293 cells; amount transfected 10 ng): 10495 pg/mL | Protein (HEK293 cells; amount transfected 610 fg): 0 pg/mL
